Reference: publication PMC9953421, “Regulation of CRISPR-Associated Genes by Rv1776c (CasR) in Mycobacterium tuberculosis”

T1: CasR (Rv1776c) (UniProt O33179 1-186)
T1 sequence: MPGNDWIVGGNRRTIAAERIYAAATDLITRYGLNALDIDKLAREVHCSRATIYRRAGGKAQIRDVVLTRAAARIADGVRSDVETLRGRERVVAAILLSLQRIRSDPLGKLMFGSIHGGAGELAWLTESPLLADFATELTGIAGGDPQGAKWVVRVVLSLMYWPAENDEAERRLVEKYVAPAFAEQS

B1: csm6p1 (dsDNA)
DNA 1: CGATAGTTGGCCCAATTGTCTATCTGGGC
DNA 2: GCCCAGATAGACAATTGGGCCAACTATCG
B2: casRp1 (dsDNA)
DNA 1: AATAAGTAAGGCTTGTGTCTCACTATGA
DNA 2: TCATAGTGAGACACAAGCCTTACTTATT

Target: T1, CasR (Rv1776c)
Experiment: EMSA; 0-2 uM protein
Settings: protein: recombinant, tags: N-terminal His (pET28a), chain copies: 2

Binder	binding result	binding result (blunt)
B1	binds	
B2		binds
